# T1: FcγRIIa R (human, UniProt P12318 34-217)
# T1 construct: extracellular domain; also called FcgRIIa R type; 2aR
# T1 sequence (looked up): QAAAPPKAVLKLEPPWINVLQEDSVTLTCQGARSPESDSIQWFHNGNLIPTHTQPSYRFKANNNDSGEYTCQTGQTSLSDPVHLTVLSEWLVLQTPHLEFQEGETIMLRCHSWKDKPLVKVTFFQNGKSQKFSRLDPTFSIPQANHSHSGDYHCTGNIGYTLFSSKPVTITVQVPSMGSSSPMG
# Biological target: T1, FcγRIIa R
# Experiment: SPR (Biacore), captured antibody, FcγR as analyte; relative binding activity
# Description: Analysis of interaction between objective antibody and the FcγR was carried out using Biacore T100 (GE Healthcare). HBS-EP+ (GE Healthcare) was used as the running buffer, and the measurement temperature was set to 25° C. Chips produced by immobilizing the antigen peptide by the amine coupling method to a Series S Sencor Chip CM5 (GE Healthcare), or alternatively, chips produced by allowing preliminarily biotinylated antigen peptides to interact with and immobilize onto a Series S Sensor Chip SA (certified) (GE Healthcare) were used. Antibodies of interest were captured onto an antigen peptide-immobilized chip, and allowed to interact to each FcγR diluted with running buffer. To regenerate and repeatedly use the chip, the antibodies captured on the chip were washed off by reacting 10 mM glycine-HCl, pH 1.5.
row,Binder,Ho/Con_2aR
1,"GpH7-B3 variant K326_18N/GpL16-k0 (antibody, human IgG1, kappa, also called Ho Ab K326_18N) heavy: not shown light: DIVMTQSPLSLPVTPGEPASISCQASESLVHSNRNTYLHWYLQKPGQSPQLLIYKVSNRFSGVPDRFSGSGSGTDFTLKISRVEAEDVGVYYCSQNTHVPPTFGQGTKVEIERTVAAPSVFIFPPSDEQLKSGTASVVCLLNNFYPREAKVQWKVDNALQSGNSQESVTEQDSKDSTYSLSSTLTLSKADYEKHKVYACEVTHQGLSSPVTKSFNRGEC",113 % (GpH7-B3/GpL16-k0 = 100)
2,"GpH7-B3 variant L234_04F/GpL16-k0 (antibody, human IgG1, kappa, also called Ho Ab L234_04F) heavy: not shown light: DIVMTQSPLSLPVTPGEPASISCQASESLVHSNRNTYLHWYLQKPGQSPQLLIYKVSNRFSGVPDRFSGSGSGTDFTLKISRVEAEDVGVYYCSQNTHVPPTFGQGTKVEIERTVAAPSVFIFPPSDEQLKSGTASVVCLLNNFYPREAKVQWKVDNALQSGNSQESVTEQDSKDSTYSLSSTLTLSKADYEKHKVYACEVTHQGLSSPVTKSFNRGEC",43.3 % (GpH7-B3/GpL16-k0 = 100)
3,"GpH7-B3 variant K326_20W/GpL16-k0 (antibody, human IgG1, kappa, also called Ho Ab K326_20W) heavy: not shown light: DIVMTQSPLSLPVTPGEPASISCQASESLVHSNRNTYLHWYLQKPGQSPQLLIYKVSNRFSGVPDRFSGSGSGTDFTLKISRVEAEDVGVYYCSQNTHVPPTFGQGTKVEIERTVAAPSVFIFPPSDEQLKSGTASVVCLLNNFYPREAKVQWKVDNALQSGNSQESVTEQDSKDSTYSLSSTLTLSKADYEKHKVYACEVTHQGLSSPVTKSFNRGEC",120 % (GpH7-B3/GpL16-k0 = 100)
4,"GpH7-B3 variant L234_09D/GpL16-k0 (antibody, human IgG1, kappa, also called Ho Ab L234_09D) heavy: not shown light: DIVMTQSPLSLPVTPGEPASISCQASESLVHSNRNTYLHWYLQKPGQSPQLLIYKVSNRFSGVPDRFSGSGSGTDFTLKISRVEAEDVGVYYCSQNTHVPPTFGQGTKVEIERTVAAPSVFIFPPSDEQLKSGTASVVCLLNNFYPREAKVQWKVDNALQSGNSQESVTEQDSKDSTYSLSSTLTLSKADYEKHKVYACEVTHQGLSSPVTKSFNRGEC",42.8 % (GpH7-B3/GpL16-k0 = 100)
5,"GpH7-B3 variant K334_20W/GpL16-k0 (antibody, human IgG1, kappa, also called Ho Ab K334_20W) heavy: not shown light: DIVMTQSPLSLPVTPGEPASISCQASESLVHSNRNTYLHWYLQKPGQSPQLLIYKVSNRFSGVPDRFSGSGSGTDFTLKISRVEAEDVGVYYCSQNTHVPPTFGQGTKVEIERTVAAPSVFIFPPSDEQLKSGTASVVCLLNNFYPREAKVQWKVDNALQSGNSQESVTEQDSKDSTYSLSSTLTLSKADYEKHKVYACEVTHQGLSSPVTKSFNRGEC",96.4 % (GpH7-B3/GpL16-k0 = 100)
6,"GpH7-B3 variant K334_02A/GpL16-k0 (antibody, human IgG1, kappa, also called Ho Ab K334_02A) heavy: not shown light: DIVMTQSPLSLPVTPGEPASISCQASESLVHSNRNTYLHWYLQKPGQSPQLLIYKVSNRFSGVPDRFSGSGSGTDFTLKISRVEAEDVGVYYCSQNTHVPPTFGQGTKVEIERTVAAPSVFIFPPSDEQLKSGTASVVCLLNNFYPREAKVQWKVDNALQSGNSQESVTEQDSKDSTYSLSSTLTLSKADYEKHKVYACEVTHQGLSSPVTKSFNRGEC",100 % (GpH7-B3/GpL16-k0 = 100)
7,"GpH7-B3 variant K334_12R/GpL16-k0 (antibody, human IgG1, kappa, also called Ho Ab K334_12R) heavy: not shown light: DIVMTQSPLSLPVTPGEPASISCQASESLVHSNRNTYLHWYLQKPGQSPQLLIYKVSNRFSGVPDRFSGSGSGTDFTLKISRVEAEDVGVYYCSQNTHVPPTFGQGTKVEIERTVAAPSVFIFPPSDEQLKSGTASVVCLLNNFYPREAKVQWKVDNALQSGNSQESVTEQDSKDSTYSLSSTLTLSKADYEKHKVYACEVTHQGLSSPVTKSFNRGEC",110 % (GpH7-B3/GpL16-k0 = 100)

# The next lines start with the values.
row,Ho/Con_2aR,Binder
1,53.8 % (GpH7-B3/GpL16-k0 = 100),"GpH7-B3 variant L234_20W/GpL16-k0 (antibody, human IgG1, kappa, also called Ho Ab L234_20W) heavy: not shown light: DIVMTQSPLSLPVTPGEPASISCQASESLVHSNRNTYLHWYLQKPGQSPQLLIYKVSNRFSGVPDRFSGSGSGTDFTLKISRVEAEDVGVYYCSQNTHVPPTFGQGTKVEIERTVAAPSVFIFPPSDEQLKSGTASVVCLLNNFYPREAKVQWKVDNALQSGNSQESVTEQDSKDSTYSLSSTLTLSKADYEKHKVYACEVTHQGLSSPVTKSFNRGEC"
2,111 % (GpH7-B3/GpL16-k0 = 100),"GpH7-B3 variant L235_15Y/GpL16-k0 (antibody, human IgG1, kappa, also called Ho Ab L235_15Y) heavy: not shown light: DIVMTQSPLSLPVTPGEPASISCQASESLVHSNRNTYLHWYLQKPGQSPQLLIYKVSNRFSGVPDRFSGSGSGTDFTLKISRVEAEDVGVYYCSQNTHVPPTFGQGTKVEIERTVAAPSVFIFPPSDEQLKSGTASVVCLLNNFYPREAKVQWKVDNALQSGNSQESVTEQDSKDSTYSLSSTLTLSKADYEKHKVYACEVTHQGLSSPVTKSFNRGEC"
3,97 % (GpH7-B3/GpL16-k0 = 100),"GpH7-B3 variant L328_02A/GpL16-k0 (antibody, human IgG1, kappa, also called Ho Ab L328_02A) heavy: not shown light: DIVMTQSPLSLPVTPGEPASISCQASESLVHSNRNTYLHWYLQKPGQSPQLLIYKVSNRFSGVPDRFSGSGSGTDFTLKISRVEAEDVGVYYCSQNTHVPPTFGQGTKVEIERTVAAPSVFIFPPSDEQLKSGTASVVCLLNNFYPREAKVQWKVDNALQSGNSQESVTEQDSKDSTYSLSSTLTLSKADYEKHKVYACEVTHQGLSSPVTKSFNRGEC"
4,39.9 % (GpH7-B3/GpL16-k0 = 100),"GpH7-B3 variant L234_10E/GpL16-k0 (antibody, human IgG1, kappa, also called Ho Ab L234_10E) heavy: not shown light: DIVMTQSPLSLPVTPGEPASISCQASESLVHSNRNTYLHWYLQKPGQSPQLLIYKVSNRFSGVPDRFSGSGSGTDFTLKISRVEAEDVGVYYCSQNTHVPPTFGQGTKVEIERTVAAPSVFIFPPSDEQLKSGTASVVCLLNNFYPREAKVQWKVDNALQSGNSQESVTEQDSKDSTYSLSSTLTLSKADYEKHKVYACEVTHQGLSSPVTKSFNRGEC"

# From patent US20150344570A1 (published 2015)
